Data: the supplement of paper PMC10724198
± gives the standard deviation of the averaged measurements.

What was measured:
[1] = tested on: Saccharomyces cerevisiae; assay: protein stability index of tFT-peptide fusion (C-terminal peptide) (PSI (0-1 scale)); higher = more stable (slower turnover); conditions: genetic background: wild type; temperature: 30 C
[2] = tested on: Saccharomyces cerevisiae; assay: as above
Procedure: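 MPS profiling in S. cerevisiae of the tFT-X12 degron library: putative degron peptides plus stable controls, 12 aa, fused to the C-terminus of a sfGFP-mCherry timer. Cells are FACS-sorted into 8 mCherry/sfGFP bins and deep-sequenced. PSI runs from 0 (unstable) to 1 (stable). Backgrounds are wild type, das1Δ and doa10Δ at 30 °C, and wild type, das1Δ, cdc34-1 and cdc53-1 at 37 °C; 2-3 technical replicates each.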

[3] = genetic background: cdc34-1, temperature: 37 C
[4] = genetic background: cdc53-1, temperature: 37 C
[5] = genetic background: das1 deletion, temperature: 30 C
[6] = genetic background: das1 deletion, temperature: 37 C
[7] = genetic background: doa10 deletion, temperature: 30 C
[8] = genetic background: wild type, temperature: 30 C
[9] = genetic background: wild type, temperature: 37 C
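Also: PSI is a weighted mean of sequencing reads over stability bins, variants kept only with over 10 reads, mCherry proximal and sfGFP distal, peptide attached via GGGS linker.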

Sequence | protein stability index [1] | protein stability index [2, 3] | protein stability index [2, 4] | protein stability index [2, 5] | protein stability index [2, 6] | protein stability index [2, 7] | protein stability index [2, 8] | protein stability index [2, 9]
EINRKKRKTKIN | 0.436 ± 0.04 | 0.704 ± 0.047 | 0.7155 ± 0.0039 | 0.67 ± 0.047 | 0.771 ± 0.011 | 0.312 ± 0.023 | 0.373 ± 0.018 | 0.465 ± 0.044
ERGSLPRIHHLI | 0.257 ± 0.0082 | 0.6542 ± 0.0035 | 0.754 ± 0.017 | 0.688 ± 0.085 | 0.736 ± 0.011 | 0.127 ± 0.012 | 0.168 ± 0.034 | 0.31 ± 0.02
ERLVFKRWYLCL | 0.123 ± 0.018 | 0.585 ± 0.028 | 0.605 ± 0.062 | 0.571 ± 0.033 | 0.7056 ± 0.0052 | 0.0726 ± 0.026 | 0.0951 ± 0.039 | 0.136 ± 0.0091
ESCVRSRRVLLC | 0.221 ± 0.026 | 0.564 ± 0.063 | 0.71 ± 0.032 | 0.621 ± 0.013 | 0.73 ± 0.027 | 0.129 ± 0.044 | 0.127 ± 0.017 | 0.196 ± 0.0075
EVPVIGVLRSLL | 0.743 ± 0.043 | 0.9376 ± 0.009 | 0.918 ± 0.014 | 0.804 ± 0.018 | 0.8784 ± 0.0044 | 0.773 ± 0.027 | 0.78 ± 0.023 | 0.847 ± 0.017
EVSIISECKVAS | 0.258 ± 0.011 | 0.5081 ± 0.0025 | 0.639 ± 0.059 | 0.44 ± 0.019 | 0.585 ± 0.026 | 0.145 ± 0.013 | 0.175 ± 0.014 | 0.281 ± 0.015
FALAYFFVLKSF | 0.172 ± 0.0026 | 0.228 ± 0.019 | 0.246 ± 0.057 | 0.243 ± 0.045 | 0.423 ± 0.0084 | 0.0908 ± 0.011 | 0.0862 ± 0.02 | 0.1132 ± 0.001
FARYLRSMYILF | 0.409 ± 0.029 | 0.546 ± 0.026 | 0.54989 ± 0.0003 | 0.5426 ± 0.0032 | 0.6721 ± 0.0049 | 0.369 ± 0.014 | 0.343 ± 0.019 | 0.462 ± 0.0051
FAVLWFLYWCSW | 0.348 ± 0.063 | 0.347 ± 0.0065 | 0.376 ± 0.019 | 0.282 ± 0.026 | 0.422 ± 0.013 | 0.245 ± 0.025 | 0.261 ± 0.044 | 0.387 ± 0.0054
FCCSFFLCVCFV | 0.392 ± 0.0044 | 0.349 ± 0.036 | 0.371 ± 0.0043 | 0.309 ± 0.019 | 0.409 ± 0.007 | 0.29 ± 0.017 | 0.276 ± 0.034 | 0.348 ± 0.013
FCLSPILLLRFL | 0.213 ± 0.034 | 0.268 ± 0.004 | 0.261 ± 0.012 | 0.355 ± 0.024 | 0.439 ± 0.0047 | 0.219 ± 0.022 | 0.174 ± 0.024 | 0.225 ± 0.012
FCRPCCLIVFVV | 0.184 ± 0.037 | 0.236 ± 0.026 | 0.295 ± 0.029 | 0.253 ± 0.036 | 0.467 ± 0.0059 | 0.122 ± 0.0099 | 0.128 ± 0.019 | 0.126 ± 0.019
FFCRARHRLYVA | 0.233 ± 0.023 | 0.537 ± 0.044 | 0.626 ± 0.059 | 0.626 ± 0.012 | 0.675 ± 0.0094 | 0.0986 ± 0.0092 | 0.105 ± 0.0095 | 0.152 ± 0.061
FFFFLFRSIFLS | 0.152 ± 0.0068 | 0.146 ± 0.12 | 0.124 ± 0.013 | 0.293 ± 0.05 | 0.394 ± 0.094 | 0.179 ± 0.0022 | 0.118 ± 0.012 | 0.138 ± 0.011
FFFFSMLIFCAV | 0.191 ± 0.0034 | 0.06041 ± 0.00022 | 0.106 ± 0.025 | 0.156 ± 0.016 | 0.226 ± 0.013 | 0.129 ± 0.01 | 0.136 ± 0.0094 | 0.192 ± 0.0081
FFFLLPRLFRCV | 0.45 ± 0.017 | 0.791 ± 0.053 | 0.835 ± 0.012 | 0.707 ± 0.03 | 0.773 ± 0.011 | 0.445 ± 0.018 | 0.449 ± 0.012 | 0.5611 ± 0.0017
FFLFCWFVPRFS | 0.435 ± 0.018 | 0.454 ± 0.0056 | 0.512 ± 0.0079 | 0.379 ± 0.027 | 0.553 ± 0.012 | 0.349 ± 0.014 | 0.351 ± 0.027 | 0.498 ± 0.016
FFLLCFMMCVLL | 0.259 ± 0.053 | 0.291 ± 0.015 | 0.291 ± 0.014 | 0.289 ± 0.043 | 0.374 ± 0.025 | 0.288 ± 0.01 | 0.219 ± 0.032 | 0.348 ± 0.01
FFLPIFFSIFLS | 0.156 ± 0.013 | 0.068 ± 0.038 | 0.0346 ± 0.0085 | 0.152 ± 0.017 | 0.198 ± 0.0023 | 0.281 ± 0.0056 | 0.108 ± 0.022 | 0.155 ± 0.0049
FFLSAFFFFFLF | 0.361 ± 0.0086 | 0.342 ± 0.04 | 0.346 ± 0.017 | 0.359 ± 0.015 | 0.4409 ± 0.0039 | 0.3669 ± 0.002 | 0.291 ± 0.027 | 0.36913 ± 0.00026

Sequence | protein stability index [1] | protein stability index [2, 3] | protein stability index [2, 4] | protein stability index [2, 5] | protein stability index [2, 6] | protein stability index [2, 7] | protein stability index [2, 8] | protein stability index [2, 9]
FFMLLYSFFTFD | 0.418 ± 0.014 | 0.434 ± 0.0044 | 0.50402 ± 2.8e-06 | 0.38 ± 0.033 | 0.51926 ± 0.00029 | 0.348 ± 0.004 | 0.375 ± 0.035 | 0.506 ± 0.024
FFSSSASVLFII | 0.299 ± 0.016 | 0.686 ± 0.11 | 0.7852 ± 0.0067 | 0.663 ± 0.029 | 0.79 ± 0.0075 | 0.19 ± 0.015 | 0.198 ± 0.016 | 0.394 ± 0.039
FFTLLLFLFFSV | 0.321 ± 0.0086 | 0.352 ± 0.035 | 0.278 ± 0.032 | 0.3 ± 0.026 | 0.435 ± 0.039 | 0.395 ± 0.0048 | 0.293 ± 0.03 | 0.411 ± 0.022
FFVACCSFVFLL | 0.335 ± 0.066 | 0.369 ± 0.024 | 0.436 ± 0.03 | 0.35 ± 0.022 | 0.478 ± 0.0052 | 0.197 ± 0.007 | 0.203 ± 0.022 | 0.316 ± 0.019
FGFGSSRFLLCL | 0.471 ± 0.029 | 0.677 ± 0.015 | 0.731 ± 0.0042 | 0.609 ± 0.027 | 0.743 ± 0.0099 | 0.3357 ± 0.0026 | 0.384 ± 0.028 | 0.604 ± 0.026
FGFLVVLFDCVR | 0.436 ± 0.07 | 0.336 ± 0.0095 | 0.437 ± 0.015 | 0.327 ± 0.034 | 0.474 ± 0.017 | 0.2652 ± 0.00067 | 0.291 ± 0.028 | 0.464 ± 0.0057
FGVFLLWCVLLL | 0.274 ± 0.077 | 0.226 ± 0.0076 | 0.297 ± 0.017 | 0.213 ± 0.023 | 0.339 ± 0.013 | 0.217 ± 0.01 | 0.191 ± 0.013 | 0.352 ± 0.075
FIAVSLSVFLVF | 0.234 ± 0.011 | 0.159 ± 0.015 | 0.286 ± 0.0034 | 0.189 ± 0.022 | 0.322 ± 0.012 | 0.1758 ± 0.00094 | 0.181 ± 0.024 | 0.287 ± 0.003
FIFLFVALFCVF | 0.353 ± 0.067 | 0.31 ± 0.039 | 0.343 ± 0.0083 | 0.327 ± 0.017 | 0.404 ± 0.014 | 0.328 ± 0.012 | 0.29 ± 0.021 | 0.365 ± 0.036
FILIFLGILSCC | 0.378 ± 0.04 | 0.409 ± 0.0092 | 0.453 ± 0.058 | 0.356 ± 0.026 | 0.463 ± 0.014 | 0.312 ± 0.0014 | 0.325 ± 0.025 | 0.4149 ± 0.0031
FIYSVFFYSYWF | 0.363 ± 0.016 | 0.36 ± 0.043 | 0.467 ± 0.033 | 0.287 ± 0.015 | 0.467 ± 0.0063 | 0.318 ± 0.025 | 0.272 ± 0.013 | 0.429 ± 0.017
FLFLESFLFFYL | 0.499 ± 0.02 | 0.5 ± 0.052 | 0.4797 ± 0.0046 | 0.418 ± 0.03 | 0.5698 ± 0.0026 | 0.502 ± 0.0079 | 0.411 ± 0.017 | 0.525 ± 0.055
FLFVFLGVYGHV | 0.404 ± 0.012 | 0.281 ± 0.02 | 0.409 ± 0.018 | 0.271 ± 0.044 | 0.494 ± 0.027 | 0.27 ± 0.0047 | 0.288 ± 0.029 | 0.46 ± 0.0054
FLGPYTPGMYLA | 0.359 ± 0.037 | 0.656 ± 0.031 | 0.7393 ± 0.0022 | 0.658 ± 0.015 | 0.7435 ± 0.0044 | 0.208 ± 0.011 | 0.258 ± 0.019 | 0.482 ± 0.0086
FLISVRFVLILN | 0.173 ± 0.024 | 0.169 ± 0.027 | 0.186 ± 0.012 | 0.175 ± 0.021 | 0.278 ± 0.01 | 0.143 ± 0.0081 | 0.135 ± 0.0052 | 0.208 ± 0.0085
FLLFLPLLFFFL | 0.3904 ± 0.001 | 0.414 ± 0.037 | 0.396 ± 0.0095 | 0.396 ± 0.024 | 0.456 ± 0.013 | 0.4578 ± 0.0037 | 0.377 ± 0.018 | 0.4384 ± 0.0031
FLLHLVAHFSFL | 0.527 ± 0.044 | 0.544 ± 0.014 | 0.571 ± 0.0063 | 0.517 ± 0.0071 | 0.531 ± 0.0066 | 0.473 ± 0.027 | 0.472 ± 0.017 | 0.503 ± 0.003
FLLIVSSVSFYL | 0.342 ± 0.052 | 0.209 ± 0.016 | 0.2981 ± 0.00045 | 0.213 ± 0.024 | 0.3885 ± 0.0014 | 0.177 ± 0.0069 | 0.207 ± 0.021 | 0.346 ± 0.0035
FLLLSCLVRRSF | 0.4628 ± 0.00075 | 0.508 ± 0.054 | 0.6 ± 0.018 | 0.454 ± 0.017 | 0.611 ± 0.01 | 0.404 ± 0.014 | 0.429 ± 0.0061 | 0.549 ± 0.018
